Results on 1 substance are retold here after PMC11751504.

The target in assay [1] is SidF C-trim (residues 1-443) (Aspergillus fumigatus) (UniProt Q4WF55). Briefly: SEC.
For assay [2] the target is unchanged. Put plainly: SAXS.

As for “SidF C-trim (residues 1-443) (from UniProt Q4WF55 1-443) (domain or fragment)”, the stoichiometry N in assay [1] is 4; in assay [2] it was 2.

One may read the stoichiometry N as a count of units in the complex or per binding partner.
